In patent publication US20090311265A1 (CRUCELL HOLLAND B V, published 2009):
Substitutions are numbered along the chain they refer to.

B1: CR6268 (antibody, V domains shown)
VH: QVQLVQSGAEVKKPGSSVKVSCKASGGTFSSYAISWVRQAPGQGLEWMGGIMGMFGTTNYAQKFQGRVTITADEFTSAAYMELRSLRSEDTAVYYCARSSGYYPEYFQDWGQGTLVTVSS
VL: QSVLTQPPSESVSPGQTASVTCSGHKLGDKYVSWYQQKPGQSPVLLIYQDNRRPSGIPERFIGSNSGNTATLTISGTQALDEADYYCQAWDSSTAVFGGGTKLTVLG
B2: CR6336 (antibody, V domains shown)
VH: B1 VH with V2M, M52F, T58A, R84S, R87G, V93M, E105Q
VL: EIVMTQSPGTLSLSPGQRATLSCRASQSVSSSYLAWYQQKPGQAPRLLMYGASSRATGIPDRFSGSGSGTDFTLTISRLEPEDFAVYYCQQYGSSSLTFGGGTKLEIKR
B3: CR6327 (antibody, V domains shown)
VH: EVQLVETGAEVKKPGSSVKVSCKASGGTFRTHAISWVRQAPGQGLEWMGGIIAIFGTANYAQKFQGRITITADESTSTAYMELSSLRSEDTAVYFCARGSGYHISTPFDNWGQGTLVTVSS
VL: SYVLTQPPSVSVAPGQTARITCGGNNIGSKGVHWYQQKPGQAPVLVVYDDSDRPSGIPERFSGSNSGNTATLTISRVEAGDEADYYCQVWDSSSDHVVFGGGTKLTVLG
B4: CR6331 (antibody, V domains shown)
VH: EVQLVESGAEVKKPGSSVKVSCKASGGTFSSYAISWVRQAPGQGLEWMGGIIGMFGTANYAQKFQGRVTITADEFTSTAYMELSSLRSEDTAVYYCARGNYYYESSLDYWGQGTLVTVSS
VL: B3 VL with S1Q, Y2S, L4V, G31S, V97Y, G101T, L105V
B5: CR6325 (antibody, V domains shown)
VH: EVQLVESGAEVKKPGSSVKVSCKASGGTFSFYSMSWVRQAPGQGLEWMGGIIPMFGTTNYAQKFQGRVTITAVESTSTAYMEVSSLRSEDTAVYYCARGDKGIYYYYMDVWGKGTTVTVSS
VL: QSALTQPASVSGSPGQSITISCTGTSSDVGGYNYVSWYQQHPGKAPKLMIYEVSNRPSGVSNRFSGSKSGNTASLTISGLQAEDEADYYCSSYTSSSTLVFGTGTKVTVLG
B6: CR6328 (antibody, V domains shown)
VH: EVQLVESGAEVKKPGSSVKVSCKASGHIFSGYAISWVRQAPGQGLEWMGGIIPIFGTTNYAQKFQGRVTITADQSTSTAYMDLSNLRSEDTAVYYCARVKDGYCTLTSCPVGWYFDLWGRGTLVTVSS
VL: not shown
B7: CR6334 (antibody, V domains shown)
VH: EVQLVETGAEVKKPGSSVKVPCKSSGSPFRSNAVSWVRQAPGQGLEWVGGILGVFGSPSYAQKFQGRVTITADESTNTVHMELRGLRSEDTAVYYCARGPTYYYSYMDVWGKGTTVTVSS
VL: SYVLTQPPSESVAPGQTARITCGGNNIGRNSVHWYQQKPGQAPVLVVYDDSDRPSGIPERFSGSKSGNTATLIISRVEVGDEADYYCQVWHSSSDHYVFGTGTKVTVLG
B8: CR6332 (antibody, V domains shown)
VH: QVQLVQSGAEVKKPGSSVKVSCKASGGPFRNFAINWVRQAPGQGLEWMGGIIAVFGTTKYAHKFQGRVTITADDSTNTAYMELGSLKSEDTAVYYCARGPHYYSSYMDVWGEGTTVTVSS
VL: DIQLTQSPSSLSASVGDRVTITCRASQGISTYLAWYQQKPGKVPKLLIYAASTLQSGVPSRFSGSGSGTDFTLTISSLQPEDVATYYCQKYNSAPSFGPGTKVDIKR
B9: CR6255 (antibody, V domains shown)
VH: EVQLVESGAEVKKPGSSVKVSCKASGGPFRSYAISWVRQAPGQGPEWMGGIIPIFGTTKYAPKFQGRVTITADDFAGTVYMELSSLRSEDTAMYYCAKHMGYQVRETMDVWGKGTTVTVSS
VL: SYVLTQPPSASGTPGQRVTISCSGSTFNIGSNAVDWYRQLPGTAPKLLIYSNNQRPSGVPDRFSGSRSGTSASLAISGLQSEDEADYYCAAWDDILNVPVFGGGTKLTVLG
B10: CR6261 (antibody, V domains shown)
VH: B9 VH
VL: QSVLTQPPSVSAAPGQKVTISCSGSSSNIGNDYVSWYQQLPGTAPKLLIYDNNKRPSGIPDRFSGSKSGTSATLGITGLQTGDEANYYCATWDRRPTAYVVFGGGTKLTVLG
B11: CR6260 (antibody, V domains shown)
VH: B9 VH
VL: SYVLTQPPSVSGTPGQRVTISCSGSRSNVGDNSVYWYQHVPEMAPKLLVYKNTQRPSGVPARFSGSKSGTSASLAIIGLQSGDEADYYCVAWDDSVDGYVFGSGTKVTVLG
B12: CR6310 (antibody, V domains shown)
VH: B9 VH
VL: B3 VL with G31S, V97A, K104Q
B13: CR6329 (antibody, V domains shown)
VH: EVQLVQSGAEVKKPGSSVKVSCKASGGIFRSNSISWVRQAPGQGLEWMGGIFALFGTTDYAQKFQGRVTITADESSTTVYLELSSLTSEDTAVYYCARGSGYTTRNYFDYWGQGTLVTVSS
VL: B2 VL with M4L, Q17E, S32N, A35G, M49I, T57S, S66G, S96P, L105V
B14: CR6262 (antibody, V domains shown)
VH: QVQLQQSGAEVKKPGSSVKVSCKVSGVIFSGSAISWVRQAPGQGLEWMGGISPLFGTTNYAQKFQGRVTITADQSTNTTYMEVNSLRYEDTAVYFCARGPKYYSEYMDVWGKGTTVTVSS
VL: DIQMTQSPSSLSASVGDRVTITCRASQGISSYLAWYQQKPGKVPTLLIYDASTLRSGVPSRFSGSGSATDFTLTISSLQPEDVATYYCQRYNSAPPITFGQGTRLEIKR

Legend:
[1] = target: recombinant HA, subtype H5 (A/Vietnam/1203/2004 (H5N1)) (influenza A virus A/Vietnam/1203/2004 …, UniProt Q80A26 6-554); test: ELISA, coated HA, IgG 5 µg/ml
[2] = target: recombinant HA, subtype H1 (A/New Caledonia/20/99 (H1N1)) (influenza A virus A/New Caledonia/20/99 …, UniProt Q289M7 18-565); test: ELISA, coated HA, IgG 5 µg/ml
[3] = target: recombinant HA, subtype H3 (A/Wyoming/3/2003(H3N2)) (influenza A virus A/Wyoming/3/2003 …); test: ELISA, coated HA, IgG 5 µg/ml
[4] = target: full-length HA from isolate A/Vietnam/1194/2004 (H5N1TV) on PER.C6 cells (influenza A virus A/Vietnam/1194/2004 …, UniProt Q80A26 6-554); test: flow cytometry, transfected PER.C6 cells

Binder | OD 492 nm [1] | OD 492 nm [2] | OD 492 nm [3] | flow cytometry signal at 0.1 µg/ml [4] | flow cytometry signal at 1 µg/ml [4] | flow cytometry signal at 10 µg/ml [4]
B1 | 1.3 OD 492 nm | 1.78 OD 492 nm | 0.08 OD 492 nm | 43.7 | 219 | 422
B2 | 1.41 OD 492 nm | 1.92 OD 492 nm | 0.1 OD 492 nm |  |  | 
B3 | 1.11 OD 492 nm |  | 0.08 OD 492 nm |  |  | 
B4 | 1.32 OD 492 nm |  | 0.06 OD 492 nm |  |  | 
B5 |  |  | 0.07 OD 492 nm |  |  | 
B6 | 1.78 OD 492 nm | 2.43 OD 492 nm | 0.07 OD 492 nm |  |  | 
B7 | 1.19 OD 492 nm | 2.04 OD 492 nm | 0.07 OD 492 nm |  |  | 
B8 | 1.65 OD 492 nm | 2.2 OD 492 nm | 0.15 OD 492 nm |  |  | 
B9 | 1.44 OD 492 nm | 1.91 OD 492 nm | 0.08 OD 492 nm | 60.4 | 257 | 414
B10 |  |  | 0.07 OD 492 nm |  |  | 
B11 | 1.45 OD 492 nm |  | 0.08 OD 492 nm | 31.1 | 168 | 323
B12 | 1.37 OD 492 nm |  | 0.08 OD 492 nm |  |  | 
B13 |  |  | 0.08 OD 492 nm |  |  | 
B14 | 1.02 OD 492 nm | 1.48 OD 492 nm | 0.09 OD 492 nm | 8.06 | 20.9 | 84.3
